Laboratory results published in the supplement of paper PMC11246515.
± gives the standard deviation of the averaged measurements.

Assay: total protein half-life in vivo (active degradation + dilution); higher = more stable protein
[1] = E. coli NCM3722 delta-clpP delta-lon delta-hslV, growth: N-lim chemostat, doubling time 6 h
[2] = E. coli NCM3722 delta-clpP, growth: N-lim chemostat, doubling time 6 h
[3] = E. coli NCM3722 delta-hslV, growth: N-lim chemostat, doubling time 6 h
[4] = E. coli NCM3722 delta-smpB, growth: N-lim chemostat, doubling time 6 h
[5] = wild type E. coli NCM3722, growth: C-lim chemostat, doubling time 3 h
[6] = wild type E. coli NCM3722, growth: C-lim chemostat, doubling time 6 h
[7] = wild type E. coli NCM3722, growth: N-lim chemostat, doubling time 6 h
[8] = wild type E. coli NCM3722, growth: N-lim chemostat, doubling time 12 h
[9] = wild type E. coli NCM3722, growth: P-lim chemostat, doubling time 6 h
[10] = wild type E. coli NCM3722, growth: P-lim chemostat, doubling time 12 h
[11] = E. coli NCM3722 delta-lon, growth: N-lim chemostat, doubling time 6 h
[12] = wild type E. coli NCM3722, growth: C-lim chemostat, doubling time 12 h

Row | Sequence | total protein half-life in vivo [1] | total protein half-life in vivo [2] | total protein half-life in vivo [3] | total protein half-life in vivo [4] | total protein half-life in vivo [5] | total protein half-life in vivo [6] | total protein half-life in vivo [7] | total protein half-life in vivo [8] | total protein half-life in vivo [9] | total protein half-life in vivo [10] | total protein half-life in vivo [11] | total protein half-life in vivo [12]
1 | MNNPAMTIKGEQAKKQLIAAALAQFGEYGMNATTREIAAQAGQNIAAITYYFGSKEDLYLACAQWIADFIGEQFRPHAEEAERLFAQPQPDRAAIRELILRACRNMIKLLTQDDTVNLSKFISREQLSPTAAYHLVHEQVISPLHSHLTRLIAAWTGCDANDTRMILHTHALIGEILAFRLGKETILLRTGWTAFDEEKTELINQTVTCHIDLILQGLSQRSL [P0ACU0] | 5.84 ± 0.3 h | 5.34 ± 0.68 h | 4.74 ± 0.24 h | 4.47 ± 0.15 h | 2.49 ± 0.42 h | 5.25 ± 0.066 h | 4.76 ± 0.33 h | 7.67 ± 0.31 h | 4.47 ± 0.36 h | 10.4 ± 0.78 h |  | 
2 | MNNREKEILAILRRNPLIQQNEIADMLQISRSRVAAHIMDLMRKGRIKGKGYILTEQEYCVVVGTINMDIRGMADIRYPQSASHPGTIHCSAGGVGRNIAHNLALLGRDVHLLSVIGDDFYGEMLLEETRRAGVNVSGCVRLHGQSTSTYLAIANRDDQTVLAINDTHLLEQLTPQLLNGSRDLLRHAGVVLADCNLTAEALEWVFTLADEIPVFVDTVSEFKAGKIKHWLAHIHTLKPTLPELEILWGQAITSDADRNTAVNALHQQGVQQLFVYLPDESVYCSEKDGEQFLLTAPAHTTVDSFGADDGFMAGLVYSFLEGYSFRDSARFAVACAAISRASGSLNNPTLSADNALSLVPMV | 5.83 ± 0.3 h |  |  |  |  |  |  |  |  |  |  | 
3 | MNNSEGLKSFQQSLADLPQWVSERLLQQINQLTNYEPVIGIMGKTGVGKSSLCNALFAGDISPVSDVAACTREPLRFRLQVGDRYITLMDLPGVGESGARDTEYAALYREQLPRLDLVLWLIKADDRALTVDEHFYHQVIGEVYRHKVLFVISQSDKAEPTSGGGQLSTAQKQNISRKICLLHELFQPVHPVCAVSVRLQWGLKVMAERMIKCLPREATSPVVSQLHPSFRTTVVREQARSDFGETVGAVLDSISAFPLIPAPVRAVIQAVRTTVVSVARAVWDFFF |  |  |  | 3.51 h |  |  |  |  |  | 6.63 h |  | 
4 | MNPAVDNEFQQWLSQINQVCGNFTGRLLTERYTGVLDTHFAKGLKLSTVTTSGVNLSRTWQEVKGSDDAWFYTVFQLSGQAIMEQDERQVQIGAGDITLLDASRPCSLYWQESSKQISLLLPRTLLEQYFPHQKPICAERLDADLPMVQLSHRLLQESMNNPALSETESEAALQAMVCLLRPVLHQRESVQPRRERQFQKVVTLIDDNIREEILRPEWIAGETGMSVRSLYRMFADKGLVVAQYIRNRRLDFCADAIRHAADDEKLAGIGFHWGFSDQSHFSTVFKQRFGMTPGEYRRKFR | 6.1 ± 0.083 h |  |  |  | 0.364 ± 0.09 h | 0.661 ± 0.089 h |  |  |  |  | 1.98 h | 0.65 h
5 | MNPLKAGDIAPKFSLPDQDGEQVNLTDFQGQRVLVYFYPKAMTPGCTVQACGLRDNMDELKKAGVDVLGISTDKPEKLSRFAEKELLNFTLLSDEDHQVCEQFGVWGEKSFMGKTYDGIHRISFLIDADGKIEHVFDDFKTSNHHDVVLNWLKEHA [P0AE52] | 5.42 ± 0.21 h | 5.26 ± 0.76 h | 4.92 ± 0.074 h | 4.25 ± 0.079 h | 2.85 ± 0.64 h | 5.36 ± 0.065 h | 4.08 ± 0.36 h | 7.49 ± 0.41 h | 4.38 ± 0.081 h | 11 ± 0.55 h | 6.45 ± 1.5 h | 7.64 ± 0.72 h
6 | MNPTRYARICEMLARRQPDLTVCMEQVHKPHNVSAIIRTADAVGVHEVHAVWPGSRMRTMASAAAGSNSWVQVKTHRTIGDAVAHLKGQGMQILATHLSDNAVDFREIDYTRPTCILMGQEKTGITQEALALADQDIIIPMIGMVQSLNVSVASALILYEAQRQRQNAGMYLRENSMLPEAEQQRLLFEGGYPVLAKVAKRKGLPYPHVNQQGEIEADADWWATMQAAG [P0AGJ2] |  | 5.55 h | 5.14 ± 0.28 h | 4.84 ± 0.18 h | 2.85 ± 0.62 h | 5.7 ± 0.66 h | 5.5 ± 0.66 h | 10 ± 0.54 h | 5.8 ± 0.23 h | 12.5 ± 0.089 h | 5.86 h | 10.7 ± 1.5 h
7 | MNQIDRLLTIMQRLRDPENGCPWDKEQTFATIAPYTLEETYEVLDAIAREDFDDLRGELGDLLFQVVFYAQMAQEEGRFDFNDICAAISDKLERRHPHVFADSSAENSSEVLARWEQIKTEERAQKAQHSALDDIPRSLPALMRAQKIQKRCANVGFDWTTLGPVVDKVYEEIDEVMYEARQAVVDQAKLEEEMGDLLFATVNLARHLGTKAEIALQKANEKFERRFREVERIVAARGLEMTGVDLETMEEVWQQVKRQEIDL [P0AEY3] | 4.85 ± 0.48 h | 4.1 ± 0.46 h | 2.49 ± 0.062 h | 2.49 ± 0.12 h | 2.51 ± 0.056 h | 5.06 ± 0.058 h | 2.624 ± 0.016 h | 3.29 ± 0.12 h | 3.61 ± 0.13 h | 6.14 ± 1.5 h | 3.25 ± 0.4 h | 6.42 ± 0.2 h
8 | MNRFSKTQIYLHWITLLFVAITYAAMELRGWFPKGSSTYLLMRETHYNAGIFVWVLMFSRLIIKHRYSDPSIVPPPPAWQMKAASLMHIMLYITFLALPLLGIALMAYSGKSWSFLGFNVSPFVTPNSEIKALIKNIHETWANIGYFLIAAHAGAALFHHYIQKDNTLLRMMPRRK |  |  |  | 5.19 h | 3.2 h |  |  |  |  | > 16 h |  | 
